What was measured:
[1] = molecular target: T1, E47 (TCF3) (Homo sapiens, UniProt P15923-2 P15923-2:1-651); test: EMSA; 5% non-denaturing PAGE, 30 min incubation; E47 homodimer shifts the probe; conditions: tags: recombinant human E47; chain copies: 2 (homodimer, stated); label: 32P
T1 sequence: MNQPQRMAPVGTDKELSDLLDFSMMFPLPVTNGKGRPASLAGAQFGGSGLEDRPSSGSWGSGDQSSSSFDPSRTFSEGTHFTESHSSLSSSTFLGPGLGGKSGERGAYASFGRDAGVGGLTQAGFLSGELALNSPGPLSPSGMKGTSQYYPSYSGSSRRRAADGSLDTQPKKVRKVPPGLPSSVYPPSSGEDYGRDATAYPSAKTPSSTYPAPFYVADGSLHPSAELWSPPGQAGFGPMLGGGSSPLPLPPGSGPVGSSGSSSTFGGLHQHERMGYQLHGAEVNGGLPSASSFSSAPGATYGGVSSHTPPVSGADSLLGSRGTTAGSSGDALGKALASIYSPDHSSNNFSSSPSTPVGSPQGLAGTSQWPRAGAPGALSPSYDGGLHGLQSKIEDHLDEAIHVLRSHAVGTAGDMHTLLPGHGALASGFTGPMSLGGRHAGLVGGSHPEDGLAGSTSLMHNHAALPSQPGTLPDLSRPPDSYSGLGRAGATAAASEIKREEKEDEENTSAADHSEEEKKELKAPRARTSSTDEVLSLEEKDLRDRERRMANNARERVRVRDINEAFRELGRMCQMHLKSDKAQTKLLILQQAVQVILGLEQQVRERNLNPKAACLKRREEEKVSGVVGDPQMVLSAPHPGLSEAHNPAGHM
Method: (§1) Gel shift assays were performed using the 376 small molecules identified in the in silico drug screen and peptide synthesis. The identified compounds were then dissolved in 5% DMSO to a concentration of […] and reacted in binding mixtures that contained E47, Id1 and Mck. As controls, recombinant human E47 was used in a standard binding reaction that contained ³²P labeled MCK double stranded oligonucleotides containing consensus E-Box response element (MCK-5′ TTGATCCCCCCAACACCTGCTGCCTGAAGCT (SEQ ID NO. 1)) and 100 ng of Id1 was added to a standard binding reaction using E47 and p32 labeled MCK. After 30 minutes of incubation, the reaction mixtures were resolved on a 5% non-denaturing polyacrylamide gel and autoradiographed.

[2] = molecular target: T2, E47 + Id1 (Homo sapiens, UniProt P15923-2;P41134 P15923-2:1-651,P41134:1-155); test: EMSA; Id1 (100 ng) added to E47 prevents E47 binding to MCK; binding restored by small-molecule Id inhibitors (100 uM, 5% DMSO); conditions: tags: recombinant human E47 mixed with recombinant human Id1 (100 ng); label: 32P
T2 sequence 1: T1 sequence
T2 sequence 2: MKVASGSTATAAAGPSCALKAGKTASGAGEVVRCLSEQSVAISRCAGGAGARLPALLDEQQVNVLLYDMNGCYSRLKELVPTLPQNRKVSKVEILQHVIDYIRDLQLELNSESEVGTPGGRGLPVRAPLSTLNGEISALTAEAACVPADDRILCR
Method: as §1

B1: MCK E-box oligonucleotide (dsDNA)
DNA 1: TTGATCCCCCCAACACCTGCTGCCTGAAGCT
DNA 2: AGCTTCAGGCAGCAGGTGTTGGGGGGATCAA
B1: binds [1]; no binding [2].
